Experimental findings from patent EP4752227A2 are described below.

The target of this assay is CD3 (human) (UniProt P07766). Put plainly: cell-based or functional assay.
Chain of UniProt P07766 (P07766 23-207): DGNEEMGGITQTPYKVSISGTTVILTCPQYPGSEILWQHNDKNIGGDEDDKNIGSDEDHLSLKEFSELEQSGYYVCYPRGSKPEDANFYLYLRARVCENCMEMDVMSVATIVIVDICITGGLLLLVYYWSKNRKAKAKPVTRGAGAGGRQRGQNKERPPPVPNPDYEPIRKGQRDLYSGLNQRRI
As to soluble anti-CD3 antibody clone HIT3A, the Transduction efficiencies as measured by CD3+GFP+ cells at Day 6 is 4.31%.

The substance soluble anti-CD3 antibody clone OKT3 came in with a Transduction efficiencies as measured by CD3+GFP+ cells at Day 6 of 3.27%.

soluble anti-CD3 antibody clone UCHT1: the Transduction efficiencies as measured by CD3+GFP+ cells at Day 6 came out at 0.52%.
